# Entries after “also recorded” stand apart in the source; their conditions may differ.
# Test system: HT1080 cells
# Assay: Co-immunofluorescence/ATAC-see analysis
# Format: cell-based, human
# Description: Co-immunofluorescence/ATAC-see analysis. ATAC-see was performed similarly as previously described with slight modifications (Chen et al., Nat. Methods 13:1013-1020, 2016). Enzyme and transposon DNA were mixed at a 1:1.25 enzyme:MEDS-A/B-AF647 molar ratio and incubated at room temperature for 1 hour. Adherent cells were grown on glass coverslips (Fisher Scientific, 12-540A) until 80-90% confluent, washed with 1×PBS, fixed with 1% formaldehyde (Electron Microscopy Services) in 1×PBS for 10 minutes, and washed twice with ice-cold 1×PBS. Suspension cells were washed and resuspended with 1×PBS. 50,000 cells were added to poly-lysine slides and incubated at room temperature for 1 hour in a humidified chamber. An equal volume of 2% formaldehyde was added and incubated for 10 minutes, whereupon slides were washed twice with ice-cold 1×PBS. Immobilized cells were lysed by incubation with LB1 for 3 minutes followed by LB2 for 10 minutes at room temperature. Cells were then subject to tagmentation (20% dimethylformamide, 10 mM MgCl2, 20 mM Tris-HCl pH 7.5, 33% 1×PBS, 0.01% digitonin, 0.1% Tween-20, and either 80 pmol enzyme equivalent of enzyme:DNA complex in a total volume of 100 μL for adherent cells or 10 pmol enzyme equivalent of enzyme:DNA complex in a total volume of 50 μL for suspension cells) for 30 minutes at 37° C. in a humidified chamber. Subsequently, cells were washed with 50 mM EDTA and 0.01% SDS in 1×PBS three times for 15 minute each at 55° C., lysed for 10 minutes with 0.5% Triton X-100 in 1×PBS at room temperature, and blocked with 1% BSA and 10% goat serum in PBS-T for 1 hour in a humidified chamber. Primary antibody was added to slides in 1% BSA/PBS-T and incubated at 4° C. overnight; slides were then washed and subjected to secondary antibody staining for 1 hour. Slides were washed with PBS-T three times for 15 minutes each, stained with DAPI (Sigma, 1 μg/mL) for 1 minute, washed with PBS for 10 minutes, and mounted with Fluorescence Mounting Medium (Dako). Confocal microscopy images were taken with an LSM 880 Axio Imager 2 at 63× magnification (Zeiss). Images were processed with Fiji/ImageJ v2.0.0.
# Primary antibodies used were anti-RNA polymerase II CTD repeat YSPTSPS (phospho S2) (rabbit, Abcam ab5095, 1:500), anti-H3K27Ac (rabbit, Abcam ab4729, 1:500), anti-H3K9me3 (rabbit, Abcam ab8898, 1:500), anti-CCDCl2 (rabbit, Atlas Antibodies HPA060530, 1:200), anti-SNRPA (mouse, 3F9-1F7, Sigma-Aldrich WH0006626M1, 1:100). […]
# Quantitative image analyses were performed with CellProfiler v3.1.5. […] Pearson correlation coefficients were determined by comparing ATAC-see pixel intensities with corresponding immunofluorescence intensity values within each ROI to assess the nucleus-to-nucleus variation in colocalization. […]
molecule,measurement,setting,value
"TP3: Tn5 transposase-AEAAAKEAAAKA linker-APEX2 peroxidase fusion, C-terminal FLAG; amino acid SEQ ID NO: 27 (protein, C-terminal FLAG) MITSALHRAADWAKSVFSSAALGDPRRTARLVNVAAQLAKYSGKSITISSEGSKAMQEGAYRFIRNPNVSAEAIRKAGAMQTVKLAQEFPELLAIEDTTSLSYRHQVAEELGKLGSIQDKSRGWWVHSVLLLEATTFRTVGLLHQEWWMRPDDPADADEKESGKWLAAAATSRLRMGSMMSNVIAVCDREADIHAYLQDKLAHNERFVVRSKHPRKDVESGLYLYDHLKNQPELGGYQISIPQKGVVDKRGKRKNRPARKASLSLRSGRITLKQGNITLNAVLAEEINPPKGETPLKWLLLTSEPVESLAQALRVIDIYTHRWRIEEFHKAWKTGAGAERQRMEEPDNLERMVSILSFVAVRLLQLRESFTPPQALRAQGLLKEAEHVESQSAETVLTPDECQLLGYLDKGKRKRKEKAGSLQWAYMAIARLGGFMDSKRTGIASWGALWEGWEALQSKLDGFLAAKDLMAQGIKIAEAAAKEAAAKAGKSYPTVSADYQDAVEKAKKKLRGFIAEKRCAPLMLRLAFHSAGTFDKGTKTGGPFGTIKHPAELAHSANNGLDIAVRLLEPLKAEFPILSYADFYQLAGVVAVEVTGGPKVPFHPGREDKPEPPPEGRLPDPTKGSDHLRDVFGKAMGLTDQDIVALSGGHTIGAAHKERSGFEGPWTSNPLIFDNSYFTELLSGEKEGLLQLPSDKALLSDPVFRPLVDKYAADEDAFFADYAEAHQKLSELGFADADYKDDDDK",ATAC-see correlation with H3K9me3 immunofluorescence,marker of transcriptionally inactive chromatin,poorly correlating; also recorded: similarly poor correlations
same,ATAC-see correlation with H3K27Ac and RNAPII S2P immunofluorescence signal,markers of transcriptionally active chromatin,strongly correlating; also recorded: similarly positive correlations
